B1: HMPREF1181_01744 (BsPL33^Heparosan), PL33_1 heparosanase from Bacteroides stercoris CC31F (enzyme)
chain: TERHLLEQTVSYEELGNVLRYRQSWVDYPAYTDRKSWKEKTAPEMRELIIRNGERALKHEWKPDLASDYLAFKRTGEIRTGRANHKALQALTLAELVEGQGRFMDAIIDGIWFLCETSWIHSAHLGFQKDRSGLPDRNEPTIELVVADIGAQMAWTYYFLKDEFDKVSPLINERIIEEVNRNLINPYFARDDYWWMGFGGQQVNNWNPWINYNVLQALMLIEKDPERVRQGVWKLMKSTDFFFSMYHEDGACDEGPTYWSGASGYALKFLDLLAKVTGNKVNIFNAPLLRNMAQYIYRVHIGGNYFVNFADSAPKVSPSPGILYRYGELTGDPAMMKFASFMAQQNQSFKDGVNGYFASALDELFMYKDIIGHPQGEPLTGTYWFKDTQICVARDTEGKSDGFFFAAKGGNNQESHNHNDVGSCILYYNALPVLIDAGVGTYTRQTFGPERYTIWTMQSDYHNLPLINGTPQKNGREFAAHSQQYKATAKTVSYQVDIAHAYPQEANVKSWIRNYTLHRKKDFTITDKWKLSACNEPSVLNLMTCCEVEIDRNKNITLTGEAGRFRVEYDKKLLSPATDTVELTDPKLIHSWNRKKLTRIRFTIVSQQISGESKLVIRKAQYHKTLND
B2: BcellWH2_04512 (BcPL33^HA), PL33_1 hyaluronidase from Bacteroides cellulosilyticus WH2 (enzyme)
chain: YTERNLLQKAAGSEEQLKEALVMNQKWVPYPAYNDRAGWNELLGTNKESLIRAGEKMLNYEWKVIRATDYLEYERSGERNIMQNPYEANRKAINALMLAELAEGKGRFIDQLINGAFYSCEMTSWVLSAHLVRQSTKRSLPDYREQVIDLGSGNFGSMLSWVYYFFHDSFDKIDPVISQRLRHTLQERILDPYMNNDREWWMAFQWKPGMIINNWNPWCNSNVLQCYLLLENDRDRLAKAVWRSMQSVDKFINFVKADGACEEGPSYWGHAAGKMYDYLQILSDGTDGKVSLFKEPMIRRMGEYISRTYVGNGWVVNFADASAKGGGDAPLIYRYGRAVGSEEMMQFAAYLLDGKRPSVPLGNDTFRSLQSILWNGELEKTTAAHTIPACTWYPETEFCYLTNKSGWFLATKGGFNNESHNHNDVGTFSLYVNTIPVLIDAGVGTYTRQTFSSERYTIWTMQSNYHNLPMINGVPQSFGQNYKATDVVCQPKKRFFSANIATAYPKEAEVNSWTRAYSLGDKQLTITDNFSLKSAKESNQVNFLTWGKVDISVPGKVTIDVQGQKVTLEYPGEFTATVETINLPDTRLSNVWGTEIYRIALKDKDARLTGKYKFVIK
notes: BcellWH2_04512, polysaccharide lyase family 33 subfamily 1 hyaluronidase of Bacteroides cellulosilyticus WH2; 68% identical to BtPL33^HA; Cloned in pET28a with either an N- or a C-terminal His6 tag; source: E. coli BL21 (DE3) or TUNER, purified (Talon cobalt IMAC, S200 Superdex SEC)

Experiments:
[1] = target: BT4410 (BtPL33^HA), PL33_1 hyaluronidase from Bacteroides thetaiotaomicron VPI-5482 (Bacteroides thetaiotaomicron VPI-5482); assay: SEC-MALS + other: SAXS; SEC-coupled light scattering and SAXS of the purified enzyme in solution, oligomeric state; conditions not shown (SI Appendix)
[2] = target: the molecule itself; assay: as above

Row | Molecule | stoichiometry N [1] | stoichiometry N [2]
1 | BT4410 (BtPL33^HA), PL33_1 hyaluronidase from Bacteroides thetaiotaomicron VPI-5482 (enzyme) | 2 | 
2 | B1 |  | 2
3 | B2 |  | 2

From article PMC11848413, “Bacterial polysaccharide lyase family 33: Specificity from an evolutionarily conserved binding tunnel” (Proceedings of the National Academy of Sciences of the …, 2025)
